{
  "source": "patent US20180244758A1",
  "binders": {"B1": {"name": "mAb PE-87 (antibody, V domains shown)", "VH": "QVQLVQSGVTLVQPGGSLRVSCAASGFTFSSYAMSWVRQAPGKGLEWVSAISGLGGSTYYADSVKGRFTISRDNSKNTLYLQMNSLRAEDTAVYYCAKDHRVWAAGYHFDYWGQGALVTVSS", "VL": "DIVLTQSPSTLSASVGDRVTITCRASQSISSWLAWYQQKPGEAPKLLISDASSLESGVPSRFSGSGSGTEFTLTISSLQPDDFATYYCQQYYSSPTFGGGTKVEIK"}, "B2": {"name": "mAb PE-64 (antibody, V domains shown)", "VH": "EVQLVESGGGLVKPGGSLRLSCAASGFTFSNAWMSWVRQAPGKGLEWVGRIKSKTDGGTIDYAAPVKGRFTISRDDSKNTVYLQMTSLKTEDTAVYYCTTYTEDMRYFDWLLRGGETFDYWGQGTLVTVSS", "VL": "DIRLTQSPSSLSASVGDRVTITCRASHYISTYLNWYQQKPGKAPKLLIYAASNLQSGVPSRFSGSGFGTDFSLTISSLQPEDFATYHCQQSYSTPGRYTFGQGTKVEIK"}},
  "key": {"[1]": {"biological_target": "EBOV GPCL (cleaved GP) (Ebola virus (EBOV)) (UniProt Q05320)", "sequence (Q05320 33-190 limits assumed, chain 1 of 2)": "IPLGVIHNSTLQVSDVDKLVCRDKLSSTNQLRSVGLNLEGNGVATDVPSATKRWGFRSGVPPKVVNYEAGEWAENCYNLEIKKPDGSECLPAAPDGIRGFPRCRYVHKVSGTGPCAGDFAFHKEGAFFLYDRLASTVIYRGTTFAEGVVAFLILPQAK", "sequence (Q05320 502-637 limits assumed, chain 2 of 2)": "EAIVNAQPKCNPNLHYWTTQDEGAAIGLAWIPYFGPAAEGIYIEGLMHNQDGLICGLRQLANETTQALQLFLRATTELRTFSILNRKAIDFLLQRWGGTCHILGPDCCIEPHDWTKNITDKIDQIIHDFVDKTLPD"}, "[2]": {"biological_target": "GP of authentic (wild-type) EBOV (Ebola virus (EBOV)) (UniProt P87666)", "sequence (P87666 33-676)": "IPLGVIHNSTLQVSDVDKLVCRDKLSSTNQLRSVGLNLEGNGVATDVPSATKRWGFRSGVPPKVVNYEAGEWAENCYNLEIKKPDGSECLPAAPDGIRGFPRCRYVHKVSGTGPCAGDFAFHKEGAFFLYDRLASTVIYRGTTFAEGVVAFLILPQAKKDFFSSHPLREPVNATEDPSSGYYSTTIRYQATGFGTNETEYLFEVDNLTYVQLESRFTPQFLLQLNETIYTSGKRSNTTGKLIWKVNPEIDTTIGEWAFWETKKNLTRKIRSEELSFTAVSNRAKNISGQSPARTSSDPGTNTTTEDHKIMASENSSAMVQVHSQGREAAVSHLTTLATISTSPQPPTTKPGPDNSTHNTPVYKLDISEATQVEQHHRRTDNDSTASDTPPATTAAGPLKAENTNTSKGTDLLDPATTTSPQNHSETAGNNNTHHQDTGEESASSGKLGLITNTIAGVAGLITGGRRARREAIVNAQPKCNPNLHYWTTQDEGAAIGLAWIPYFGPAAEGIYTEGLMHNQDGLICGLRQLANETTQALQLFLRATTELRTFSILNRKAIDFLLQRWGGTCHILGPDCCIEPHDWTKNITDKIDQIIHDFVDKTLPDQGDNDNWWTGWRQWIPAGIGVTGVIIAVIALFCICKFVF", "experiment": "cell-based or functional assay"}, "[3]": {"biological_target": "SUDV GP on rVSV particles (Sudan virus (SUDV)) (UniProt Q66814)", "sequence (Q66814 33-676)": "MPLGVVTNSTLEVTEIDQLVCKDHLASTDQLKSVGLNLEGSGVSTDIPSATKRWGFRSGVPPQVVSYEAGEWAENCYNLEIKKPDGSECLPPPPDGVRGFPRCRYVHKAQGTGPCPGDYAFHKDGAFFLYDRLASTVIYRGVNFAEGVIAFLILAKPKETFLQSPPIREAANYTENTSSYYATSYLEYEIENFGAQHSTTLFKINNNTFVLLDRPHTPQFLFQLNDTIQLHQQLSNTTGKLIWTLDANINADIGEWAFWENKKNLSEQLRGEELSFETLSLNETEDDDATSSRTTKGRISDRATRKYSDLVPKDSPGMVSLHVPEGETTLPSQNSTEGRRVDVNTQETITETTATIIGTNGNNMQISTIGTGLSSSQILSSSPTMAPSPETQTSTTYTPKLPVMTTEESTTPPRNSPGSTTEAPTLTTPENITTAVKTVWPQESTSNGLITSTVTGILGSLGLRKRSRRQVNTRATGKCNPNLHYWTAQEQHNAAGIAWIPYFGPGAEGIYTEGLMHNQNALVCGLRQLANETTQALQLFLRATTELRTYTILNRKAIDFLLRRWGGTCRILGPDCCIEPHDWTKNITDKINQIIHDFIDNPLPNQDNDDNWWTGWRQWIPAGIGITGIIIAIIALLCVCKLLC", "experiment": "cell-based or functional assay"}, "[4]": {"biological_target": "TAFV GP on VSV pseudotype particles (Tai Forest virus (TAFV)) (UniProt Q66810)", "sequence (Q66810 33-676)": "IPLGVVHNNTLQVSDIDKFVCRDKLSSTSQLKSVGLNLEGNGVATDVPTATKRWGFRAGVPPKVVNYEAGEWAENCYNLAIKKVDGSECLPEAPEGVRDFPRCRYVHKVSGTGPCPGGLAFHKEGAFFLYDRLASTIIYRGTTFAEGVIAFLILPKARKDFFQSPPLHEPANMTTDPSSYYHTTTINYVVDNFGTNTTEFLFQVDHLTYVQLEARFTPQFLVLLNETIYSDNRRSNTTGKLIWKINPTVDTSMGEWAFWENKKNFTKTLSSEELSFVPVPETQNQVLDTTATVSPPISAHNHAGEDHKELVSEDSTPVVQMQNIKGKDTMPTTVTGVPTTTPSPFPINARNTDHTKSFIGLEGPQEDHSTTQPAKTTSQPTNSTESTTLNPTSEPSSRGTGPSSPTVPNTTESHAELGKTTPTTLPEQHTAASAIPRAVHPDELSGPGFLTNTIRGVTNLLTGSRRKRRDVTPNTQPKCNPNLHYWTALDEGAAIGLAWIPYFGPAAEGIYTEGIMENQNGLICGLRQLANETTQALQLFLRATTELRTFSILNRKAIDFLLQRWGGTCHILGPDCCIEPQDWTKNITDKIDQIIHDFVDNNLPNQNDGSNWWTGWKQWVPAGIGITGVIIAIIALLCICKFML", "experiment": "cell-based or functional assay"}, "[5]": {"biological_target": "GP of authentic (wild-type) SUDV (Sudan virus (SUDV)) (UniProt Q66814)", "sequence (Q66814 33-676)": "as the sequence (Q66814 33-676) above", "experiment": "cell-based or functional assay"}, "[6]": {"biological_target": "BDBV GP on rVSV particles (Bundibugyo virus (BDBV))", "experiment": "cell-based or functional assay"}, "[7]": {"biological_target": "GP of authentic (wild-type) BDBV (Bundibugyo virus (BDBV))", "experiment": "cell-based or functional assay"}, "[8]": {"biological_target": "EBOV GP on rVSV particles (Ebola virus (EBOV)) (UniProt Q05320)", "sequence (Q05320 33-676)": "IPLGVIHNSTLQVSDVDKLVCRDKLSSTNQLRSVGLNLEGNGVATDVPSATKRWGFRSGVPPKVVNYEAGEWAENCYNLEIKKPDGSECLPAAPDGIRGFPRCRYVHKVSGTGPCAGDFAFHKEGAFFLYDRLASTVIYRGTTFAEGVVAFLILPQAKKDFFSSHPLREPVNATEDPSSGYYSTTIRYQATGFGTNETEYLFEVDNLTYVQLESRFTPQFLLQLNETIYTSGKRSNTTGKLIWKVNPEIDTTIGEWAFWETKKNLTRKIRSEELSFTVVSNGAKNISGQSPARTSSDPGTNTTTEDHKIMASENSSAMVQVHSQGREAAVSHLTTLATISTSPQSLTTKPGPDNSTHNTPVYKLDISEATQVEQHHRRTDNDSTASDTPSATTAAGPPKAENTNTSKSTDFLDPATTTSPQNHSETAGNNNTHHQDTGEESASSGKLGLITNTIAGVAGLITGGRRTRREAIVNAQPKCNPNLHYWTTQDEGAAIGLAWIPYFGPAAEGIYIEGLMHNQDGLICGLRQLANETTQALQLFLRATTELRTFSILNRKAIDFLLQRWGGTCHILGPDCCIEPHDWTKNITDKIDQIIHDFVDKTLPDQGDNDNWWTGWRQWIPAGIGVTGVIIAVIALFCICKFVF", "experiment": "cell-based or functional assay"}},
  "data": [
    {"binder": "B1", "values": [
      {"measurement": "Kd", "setting": "[1]", "result": "< 0.001", "unit": "nM"}
    ]},
    {"binder": "B2", "values": [
      {"measurement": "Authentic virus neutralization IC50", "setting": "[2]", "result": 0.6, "unit": "nM"},
      {"measurement": "rVSV-GP neutralization IC50", "setting": "[3]", "result": 40, "unit": "nM"},
      {"measurement": "rVSV-GP neutralization IC50", "setting": "[4]", "result": 8, "unit": "nM"},
      {"measurement": "Authentic virus neutralization IC50", "setting": "[5]", "result": 120, "unit": "nM"},
      {"measurement": "rVSV-GP neutralization IC50", "setting": "[6]", "result": 0.4, "unit": "nM"},
      {"measurement": "Authentic virus neutralization IC50", "setting": "[7]", "result": 1.5, "unit": "nM"},
      {"measurement": "rVSV-GP neutralization IC50", "setting": "[8]", "result": 2.5, "unit": "nM"}
    ]}
  ]
}
